In patent publication US20210301011A1, “COMPOSITION FOR PROPHYLAXIS OR TREATMENT OF IL-8 RELATED DISEASES” (CHUGAI SEIYAKU KABUSHIKI KAISHA, priority 2016, published 2021):

Test system: endometriosis lesions
Format: in vivo, cynomolgus monkeys
Excerpt: Female cynomolgus monkeys of 8 to 14 years of age with regular sexual cycle (provided by the Tsukuba Primate Research Center at the National Institutes of Biomedical Innovation, Health and Nutrition) were laparotomized under anesthesia during the period corresponding to the luteal phase. The uterine corpus was removed by dissecting in a V shape. Then, the uterine corpus was cut into 5 to 10 mm cubes while leaving the smooth muscle layer of the uterus, and one and two pieces were transplanted onto the right abdominal wall and left abdominal wall (cranial and caudal sides), respectively, in such a manner that the endometrium part is in contact with the peritoneum by suturing with an absorbable suture and formed the transplant. After excision, the uterus was sutured with absorbable suture. Then, the remaining endometrial tissues were finely cut and suspended in 5 ml of 2 ng/ml Hepatocyte Growth Factor solution (R&D systems), and this was seeded in the peritoneal cavity for transplantation, followed by closure of the abdomen. Anesthesia was performed using balanced anesthesia of ketamine/xylazine (mixed at an adequate ratio of about 2:1); however, anesthesia was maintained with isoflurane depending on the maintenance period of anesthesia. The body temperature was maintained and controlled during surgery using a heating pad and the condition was monitored electrocardiographically. The antagonist Antisedan (at roughly the same amount as that of xylazine) and antibiotic cephradine were administered at the time of awakening after surgery. The pain reliever Zalban was administered for two days after surgery, and the monkeys were observed regularly every day to confirm the absence of post-surgical abnormalities. In laparoscopic observation, anesthesia and post-surgical monitoring were also performed in the same way.
Laparoscopic observation was carried out four months, nine months (3 months after administration), and 12 months (6 months after administration) following the surgical induction of endometriosis described above, and the pathological conditions of endometriosis were assessed as follows.
The abdomen was incised in the median line under anesthesia, and laparoscopic observation was performed by inserting a trocar and then introducing a laparoscope. The laparoscope was connected to a video system (KARL STORZ) and a monitor. The monitor was used for intraperitoneal observation, and the video system was used for recording. Then, the peritoneal cavity was filled with carbon dioxide gas using Intra-abdominal Insufflation Unit (OLYMPUS) to expand the abdomen, and graduated bars and forceps were inserted from the ventral portion. The size of the lesion was measured using the graduated bar or graduated forceps.
The sizes (width, height, and depth) of nodular lesions formed by suturing the endometrial tissues were measured and the volumes were calculated based on: width (mm)×height (mm)×depth (mm). The lesions and adhesion formed by seeding endometrial tissues after fine cutting were assessed for the site, area, and depth of adhesion and the size of lesion by laparoscopic observation based on modified r-AFS score modified for monkeys from the r-AFS score for clinical use.
1. The item on adhesion to the vesicouterine pouch was added, because in the monkey model, the frequency of adhesion to the urinary bladder is higher than in humans. The method for assessing adhesion to the urinary bladder was the same scoring as that used for adhesion to the Douglas' pouch. 2. Since monkey's body and organ sizes are smaller than those of humans, the criteria of lesion size scoring were altered to: <3 mm, 3-10 mm, and >10 mm
The grouping was performed in two separate times. After randomization based on the mean volume of nodular lesions and the number of measurable lesions in each individual, eventually, six individuals were assigned to vehicle group and seven individuals were assigned to the antibody H1009/L395-F1974m-administered group. […]

B1: H1009/L395-F1974m: H1009-F1974m (SEQ ID NO:36) heavy chain, L395-kOMT light chain; the anti-IL-8 antibody of Table 29 (antibody)
heavy: QVQLVESGGGLVQPGGSLRLSCAASGFTFSDYYLSWVRQAPGKGLEWVGLIRNKDNYHTPEYSASVKGRFTISRDDSKNSLYLTMSDLKTEDTAVYYCARENHRYDVELAYWGQGTLVTVSSASTKGPSVFPLAPSSKSTSGGTAALGCLVKDYFPEPVTVSWNSGALTSGVHTFPAVLQSSGLYSLSSVVTVPSSSLGTQTYICNVNHKPSNTKVDKKVEPKSCDKTHTCPPCPAPELRRGPSVFLFPPKPKDTLMISRTPEVTCVVVDVSHEDPEVKFNWYVDGVEVHNAKTKPREEQYNSTYRVVSVLTVLHQDWLNGKEYKCKVSNKGLPSSIEKTISKAKGQPREPQVYTLPPSREEMTKNQVSLTCLVKGFYPSDIAVEWESNGQPENNYKTTPPVLDSDGSFFLYSKLTVDKSRWQQGNVFSCSVLHEALHAHTTRKELSLSP
light: DIQMTQSPSSLSASVGDRVTITCRASEIIYSYLAWYQQKPGKAPKLLIYKAKTHADGVPSRFSGSGSGTDFTFTISSLQPEDIATYYCKHHFGFPRTFGQGTKVEIKRTVAAPSVFIFPPSDEQLKSGTASVVCLLNNFYPREAKVQWKVDNALQSGNSQESVTEQDSKDSTYSLSSTLTLSKADYEKHKVYACEVTHQGLSSPVTKSFNRGEC
Q: For B1, which “frequency of nodular lesions of type A: proliferative, ≥500 mm3” value (10 mg/kg i.v. q4w, 6 months) is on record?
A: 0%

Q: And the “frequency of nodular lesions of type B: proliferative, <500 mm^3” value (10 mg/kg i.v. q4w, 6 months)?
A: 8%

Q: What about the “frequency of nodular lesions of type C: no change” value (10 mg/kg i.v. q4w, 6 months) of the same molecule?
A: 33%

Q: And the “frequency of nodular lesions of type D: decreased” value (10 mg/kg i.v. q4w, 6 months)?
A: 58%

Q: What about the “nodular lesions of type A: proliferative, ≥500 mm3 (lesions/total lesions)” value (10 mg/kg i.v. q4w, 6 months) of the same molecule?
A: (0/12)

Q: What about the “nodular lesions of type B: proliferative, <500 mm^3 (lesions/total lesions)” value (10 mg/kg i.v. q4w, 6 months) of the same molecule?
A: (1/12)

Q: And the “nodular lesions of type C: no change (lesions/total lesions)” value (10 mg/kg i.v. q4w, 6 months)?
A: (4/12)

Q: What about the “nodular lesions of type D: decreased (lesions/total lesions)” value (10 mg/kg i.v. q4w, 6 months) of the same molecule?
A: (7/12)

Q: What about the “change of size r-AFS score” value (after vs before administration, compared to vehicle group) of the same molecule?
A: tended to decrease

Q: What about the “change of total r-AFS score” value (after vs before administration, compared to vehicle group, p=0.0070) of the same molecule?
A: clearly decreased as compared to the vehicle group

Q: And the “change of adhesion score (adhesion r-AFS score)” value (after vs before administration, compared to vehicle group, p=0.0096)?
A: clearly decreased as compared to the vehicle group

Q: And the “frequency of deep lesions (endometriosis gland ducts invaded up to the muscle layer of abdominal wall)” value (anti-antibody-positive individuals excluded, vehicle 5/18 lesions)?
A: 1/11

Q: And the “hemosiderin observed (lesions/total)” value (antibody administration group, vehicle 9/16)?
A: 4/17

Q: And the “hemosiderin observed (percent of lesions)” value (antibody administration group, vehicle 56%)?
A: 24%

Q: And the “total modified r-AFS score before and after administration” value (scores recorded by the practitioner during laparoscopic surgery, P=0.875)?
A: the score did not change
